Source: the domain aggregation screens of Martell et al. (2025)
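Note: 20 min heating vs room temperature control held 20 min.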

Assay: soluble fraction after stress (log2 fold change); higher = more stays soluble; pooled small domains, quantitative proteomics
Conditions: stress: 75 degC
For “HMRMTPRQALDDLIREREETYAAVSRLLGRNTAYIQQYIKRGTPARLDQSDIAQLALHFDVPAKLLGGKE”, the “soluble fraction (log2)” value was -1.16. With “HMRMTTEQLMSFLKQHFPQVADNFTVRISDEGRLSVEMPVNDKHLRPGGTVSGPSMFALADVAFYLAILQ” the “soluble fraction (log2)” value was -1.56. With “HMRNERDRQLYAAMEKLKAEYREALYLVYFENMSYRDAAAVMAQTEKQISNLVYRGKQSLKTILEQEGF” the “soluble fraction (log2)” value was -2.6. With “HMRNGGHTVYRNNGSLFIVVRDGDKLESVASEFRVSPKKLIKYNDLDIHSNVKTGDMIYIRPKA” the “soluble fraction (log2)” value was -0.423. In the case of “HMRNLYEILGVSKDAPQGEIKSAYRKLAKTYHPDLNPNNEKAAELFKEINQAYEVLSDETKRRHYDQFGEA”, the “soluble fraction (log2)” value is reported as 0.342. In the case of “HMRNMTDYLTIVRAVYGGLSQRQAATTYHVSRNTVSLLIRHAKNQGWLTVEDLSRADAAAFSPA”, the “soluble fraction (log2)” value is reported as -0.393. With “HMRNMVSVLDHIEGIGPKRRQLLYEHYGELEKIKEASVEEMAGLDGMNRPAAEAVYNFFLAQRNL” the “soluble fraction (log2)” value was -0.247. In the case of “HMRNSSLQTDLELRAYVIDGLNHFWTPEEIAGRWSLAHPDRPVSFATIYRHIKRKLLPGIEPKTHLRRRGK”, the “soluble fraction (log2)” value is reported as -2.54. With “HMRPEARAASLSDEERKIFDYLAANGEKTIDNISVAVKMSAADILKNITLMSAKGLVYMPSAGRYGVKGN” the “soluble fraction (log2)” value was -0.297. With “HMRPNREKDMADLEKLAPFLLQMLTNYAQMTGDEKPLNAFITRFGYAAQIRDIQDFFMGPWHPA” the “soluble fraction (log2)” value was ≥ 1.04. With “HMRPQIAIDAIQALSLIMRTENKEDPTYLESRRVVSDAVAKRLSLNPTDLNRAWSRAPRDHQIAVLSALTQ” the “soluble fraction (log2)” value was -1.34. In the case of “HMRPRGTRLPTGWTPSSDALDWTKAEKPGLDPLQTLEKFRDYWTAQPGQKGVKTDWDATWRNWVRREIP”, the “soluble fraction (log2)” value is reported as -0.104. In the case of “HMRPSGTAGILRYLSSGAIRGIGATTAQRLVSEFGEKTLDVMENEPERVAMLKGISKSKAEDFSLQLKQS”, the “soluble fraction (log2)” value is reported as -0.0414. In the case of “HMRPTAWEQVSRHIDQHGSIGNTEVRKAMETENVLAASKQIKKWLEQGLLIILNPTAGTRARRYSKPNM”, the “soluble fraction (log2)” value is reported as -1.19. With “HMRPTDVLNYDESMRILNFSNNRVGFKHLMDAKGIEQVIFKNRKIGYRKSEILALKSELEAEQK” the “soluble fraction (log2)” value was -0.958. With “HMRPYAYGTGRRKSSTARVHLIPNGSGSITINGRTLDEYFGLETLKLIVRQPLAATETAEKFDVEATVV” the “soluble fraction (log2)” value was -0.638. For “HMRQDEKTLLYWIGAQVKREGKLIKTSTAQYLVEKTGTDMENLEKELEKLFAYTLDEKEITPAAIDEI”, the “soluble fraction (log2)” value was -1.77. For “HMRQIRELFRLKFGSLLPTSDRQIAAQLGVARSTVAEYLERARAAGLSWPLPLDLSDADLEERLFA”, the “soluble fraction (log2)” value was -3.08. In the case of “HMRQMSEELQSAKEALEDRRTQEKAVLLLMEHRNISNDEAHRLLRKLAMDQGKRLPEVARALVSMAGVL”, the “soluble fraction (log2)” value is reported as -0.319. For “HMRQSKMREAILAAVSAQKLEISDLHVWRIGEQRYAAIIGLATTQAESVSALRDSLAQMDKLVHLTIDQ”, the “soluble fraction (log2)” value was -2.21. In the case of “HMRQTGWVTADSLNVRARPSLQAERVEKVTYGQQVQIMFKQGQWYQIATENGKIGWVSSEYIAAVSP”, the “soluble fraction (log2)” value is reported as -2.4. With “HMRRELDSEHKRQEILFAAKRLLLAEGYDATSMSRLAKEAGVAPNTLYWYFKDKDELLIAILDELVAE” the “soluble fraction (log2)” value was -2.74. For “HMRRGKLGMASRLEQIPGIGPKKRKALLKAFGNSIDAIKSAPVEDLMKVKGINLVLAESIKEL”, the “soluble fraction (log2)” value was -0.11. For “HMRRMTEEQSKLFQGLVSIVQTTLVADMEKGAVTPLLIAEKVDFVADNLYPGKDIDRKEAVAELIRRFSLW”, the “soluble fraction (log2)” value was -1.67. For “HMRRSKQERQQAIKTLISNEQIQRQEDLVRKLNEAGWEVTQATISRDITEMQLVKVPLPTGGFAYAVM”, the “soluble fraction (log2)” value was -0.0517. In the case of “HMRRSKVMLESILDEIPQMGQARRAALLEQFGSVAALRKASLAEIAMTPGIGEKIAVIIFEYLQKSSH”, the “soluble fraction (log2)” value is reported as -1.69. For “HMRRTEKEIEQDVMRAIATIISEKGISSVTIKEVSNLSKTDVIVLERRFKNDEGLIKAYTSQ”, the “soluble fraction (log2)” value was -1. In the case of “HMRSFADEGTVEEWIKQAIRENEAAVADYRKGKETAVKFLMGQVMRLSKGEANPADLEDKIKAKLD”, the “soluble fraction (log2)” value is reported as 0.0142. For “HMRSFGTVAQARGRWKAFYVGPDKRRHTPGVTFSNPIRAQGWLAQELTLIELGQWTPPAQRREKAEVAS”, the “soluble fraction (log2)” value was -2.26. For “HMRSIVETLTDRELEIFQLIGNGFSTGEIARRLNLSPHTIETHRKNIKDKLGLSSGSELNKQAIQWVLSS”, the “soluble fraction (log2)” value was 0.244. In the case of “HMRSKTSYAVWTPIQIDAGSQMQALQSKGFNTVLMEGGISVGIRSDKAQAQALLNRLQGAGFTGQLREVN”, the “soluble fraction (log2)” value is reported as -0.173. In the case of “HMRSLATFEEEKIALRFWNYLQSEGIKSTLEEEGPRDWVIWVIDEEKIPSATQSLEKFNLNPDDPAFSN”, the “soluble fraction (log2)” value is reported as -0.784. For “HMRSLVDRSVQAVTDHIRENALRVGDSLPGEAYFATSLGVSRAVMREAFGALAALRVIDVGNGRKPRVGAI”, the “soluble fraction (log2)” value was -0.687. For “HMRSMEKRLTAKVKRVQEGVQAKSQAGEQPFEVVKLMQRFPKLMQFGKHAEAETVLDKALELLGEE”, the “soluble fraction (log2)” value was -0.0318. For “HMRSQLALVVRTGESQRLDNFLVNNLAWKSRNRLQGLIREGLVTVNGEKTKASRRVHLDDLVEIHL”, the “soluble fraction (log2)” value was -1.31.
